The target in the test is mouse CD4 (mouse) (UniProt P06332). Description: flow cytometry, primary C57BL/6 splenocytes ex vivo, siCy5 signal (FIG. 4B). Background: In flow cytometry, cells or beads pass a laser one at a time.
UniProt P06332, sequence (P06332 27-457): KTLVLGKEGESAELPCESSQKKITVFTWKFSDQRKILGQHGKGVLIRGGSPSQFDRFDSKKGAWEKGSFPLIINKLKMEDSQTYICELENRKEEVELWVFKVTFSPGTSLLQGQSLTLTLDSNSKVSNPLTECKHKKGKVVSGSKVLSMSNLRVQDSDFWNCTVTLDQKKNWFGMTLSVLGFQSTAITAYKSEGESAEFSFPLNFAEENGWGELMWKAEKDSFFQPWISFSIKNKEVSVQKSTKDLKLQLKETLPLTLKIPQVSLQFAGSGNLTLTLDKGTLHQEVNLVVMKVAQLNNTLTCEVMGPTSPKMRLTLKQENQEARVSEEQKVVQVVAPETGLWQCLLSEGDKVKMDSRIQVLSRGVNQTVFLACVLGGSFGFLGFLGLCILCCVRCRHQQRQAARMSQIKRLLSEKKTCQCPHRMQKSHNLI

The substance “isoLNPs: lipid nanoparticles coated with an isotype control mAb (antibody)” returned a percent of CD4+ cells that bind of 1%. “tLNPs: lipid nanoparticles (siRNA-encapsulating) conjugated to DTT-reduced anti-mouse CD4 monoclonal antibody (clone YTS.177)” came in with a percent of CD4+ cells that bind of 100%.

For the origin of these results see US20180142261A1.
